Measured values reported in doi:10.1101/2024.05.17.594632 (bioRxiv, 2024).

Biological target: the molecule itself
Assay: cryo-EM structure

B1: full-length phytochrome from Pseudomonas aeruginosa (PaBphP) (enzyme)
chain: MTSITPVTLANCEDEPIHVPGAIQPHGALVTLRADGMVLAASENIQALLGFVASPGSYLTQEQVGPEVLRMLEEGLTGNGPWSNSVETRIGEHLFDVIGHSYKEVFYLEFEIRTADTLSITSFTLNAQRIIAQVQLHNDTASLLSNVTDELRRMTGYDRVMAYRFRHDDSGEVVAESRREDLESYLGQRYPASDIPAQARRLYIQNPIRLIADVAYTPMRVFPALNPETNESFDLSYSVLRSVSPIHCEYLTNMGVRASMSISIVVGGKLWGLFSCHHMSPKLIPYPVRMSFQIFSQVCSAIVERLEQGRIAELLRVSTERRLALARRARDADDLFGALAHPDDGIAALIPCDGALVMLGGRTLSIRGDFERQAGNVLQRLQRDPERDIYHTDNWPQPSEDSPDGGDCCGVLAIRFHRQESGWIFWFRHEEVHRIRWGGKPEKLLTIGPSGPRLTPRGSFEAWEEVVRGHSTPWSETDLAIAEKLRLDLMELCLNHAAEVDRMRQRLIAVLGHDLRNPLQSISMAAALLSSSDTRTTELRQHISASSSRMERLVSQILDMSRLQSGIGLTVNPVDTDVSQLVRQIVCETDVAYPGLVIEIAIDPQVRAVVDPDRYAQVAANLLSNARHHGLPGRPVLVTLTRQGDEVCLSVLNETSGLSEAQLANLFEPFKRESADNQRNRNGLGIGLYISQAIAQAHQGRIDVDCRDDVITFCLRLPVRQAETGSSS
modifications: biliverdin chromophore (15Z in Pr, 15E in Pfr)
stoichiometry N: 2
